What all share (assay): purified protein, by the assay type
What all share (conditions): other: apparent Km of the peptide, AdoMet saturating 448 μM, 1 nM PRDM9, 10 mM Tris-HCl pH 8.5, 0.01% Triton X-100, 10 mM DTT, 20 min, 23 °C, mean ± S.D., n = 3, NA = not active

Substrate in data set [1]: CC(C)C[C@H](NC(=O)[C@H](CCC(N)=O)NC(=O)[C@H](CCCCN)NC(=O)[C@H](CCCNC(=N)N)NC(=O)[C@@H]1CCCN1C(=O)[C@H](C)NC(=O)[C@H](CCCCN)NC(=O)CNC(=O)CNC(=O)[C@@H](NC(=O)[C@H](CO)NC(=O)[C@H](CCCCN)NC(=O)[C@H](CCCNC(=N)N)NC(=O)[C@H](C)NC(=O)[C@@H](NC(=O)[C@H](CCC(N)=O)NC(=O)[C@H](CCCCN(C)C)NC(=O)[C@@H](NC(=O)[C@H](CCCNC(=N)N)NC(=O)[C@H](C)N)[C@@H](C)O)[C@@H](C)O)[C@@H](C)O)C(=O)N[C@@H](C)C(=O)N[C@H](C(=O)N[C@@H](CCCCN)C(=O)N[C@@H](C)C(=O)N[C@@H](C)C(=O)O)[C@@H](C)O

Substrate in data set [2]: CC(C)[C@H](NC(=O)CNC(=O)CNC(=O)[C@@H](NC(=O)[C@H](C)NC(=O)[C@@H]1CCCN1C(=O)[C@H](C)NC(=O)[C@H](CO)NC(=O)[C@H](CCCCN)NC(=O)[C@H](CCCNC(=N)N)NC(=O)[C@H](C)NC(=O)[C@H](C)NC(=O)[C@H](CCCCN)NC(=O)[C@@H](NC(=O)[C@H](C)N)[C@@H](C)O)[C@@H](C)O)C(=O)N[C@@H](CCCCN(C)C)C(=O)N[C@@H](CCCCN)C(=O)N1CCC[C@H]1C(=O)N[C@@H](Cc1c[nH]cn1)C(=O)N[C@@H](CCCNC(=N)N)C(=O)N[C@@H](Cc1ccc(O)cc1)C(=O)N[C@@H](CCCNC(=N)N)C(=O)N1CCC[C@H]1C(=O)NCC(=O)O

Substrate in data set [3]: CC(C)[C@H](NC(=O)CNC(=O)CNC(=O)[C@@H](NC(=O)[C@H](C)NC(=O)[C@@H]1CCCN1C(=O)[C@H](C)NC(=O)[C@H](CO)NC(=O)[C@H](CCCCN)NC(=O)[C@H](CCCNC(=N)N)NC(=O)[C@H](C)NC(=O)[C@H](C)NC(=O)[C@H](CCCCN)NC(=O)[C@@H](NC(=O)[C@H](C)N)[C@@H](C)O)[C@@H](C)O)C(=O)N[C@@H](CCCCN)C(=O)N[C@@H](CCCCN)C(=O)N1CCC[C@H]1C(=O)N[C@@H](Cc1c[nH]cn1)C(=O)N[C@@H](CCCNC(=N)N)C(=O)N[C@@H](Cc1ccc(O)cc1)C(=O)N[C@@H](CCCNC(=N)N)C(=O)N1CCC[C@H]1C(=O)NCC(=O)O

Substrate in data set [4]: CNCCCC[C@H](NC(=O)[C@@H](NC(=O)CNC(=O)CNC(=O)[C@@H](NC(=O)[C@H](C)NC(=O)[C@@H]1CCCN1C(=O)[C@H](C)NC(=O)[C@H](CO)NC(=O)[C@H](CCCCN)NC(=O)[C@H](CCCNC(=N)N)NC(=O)[C@H](C)NC(=O)[C@H](C)NC(=O)[C@H](CCCCN)NC(=O)[C@@H](NC(=O)[C@H](C)N)[C@@H](C)O)[C@@H](C)O)C(C)C)C(=O)N[C@@H](CCCCN)C(=O)N1CCC[C@H]1C(=O)N[C@@H](Cc1c[nH]cn1)C(=O)N[C@@H](CCCNC(=N)N)C(=O)N[C@@H](Cc1ccc(O)cc1)C(=O)N[C@@H](CCCNC(=N)N)C(=O)N1CCC[C@H]1C(=O)NCC(=O)O

Substrate in data set [5]: CNCCCC[C@H](NC(=O)[C@@H](NC(=O)[C@H](CCCNC(=N)N)NC(=O)[C@H](C)N)[C@@H](C)O)C(=O)N[C@@H](CCC(N)=O)C(=O)N[C@H](C(=O)N[C@@H](C)C(=O)N[C@@H](CCCNC(=N)N)C(=O)N[C@@H](CCCCN)C(=O)N[C@@H](CO)C(=O)N[C@H](C(=O)NCC(=O)NCC(=O)N[C@@H](CCCCN)C(=O)N[C@@H](C)C(=O)N1CCC[C@H]1C(=O)N[C@@H](CCCNC(=N)N)C(=O)N[C@@H](CCCCN)C(=O)N[C@@H](CCC(N)=O)C(=O)N[C@@H](CC(C)C)C(=O)N[C@@H](C)C(=O)N[C@H](C(=O)N[C@@H](CCCCN)C(=O)N[C@@H](C)C(=O)N[C@@H](C)C(=O)O)[C@@H](C)O)[C@@H](C)O)[C@@H](C)O

Consider one protein from PMC4002121, “Trimethylation of Histone H3 Lysine 36 by Human Methyltransferase PRDM9 Protein” (The Journal of Biological Chemistry, 2014).

The Km is the substrate concentration at which the rate is half of its maximum.

B1: PRDM9 (Homo sapiens) (protein)
chain: SEPQDDDYLYCEMCQNFFIDSCAAHGPPTFVKDSAVDKGHPNRSALSLPPGLRIGPSGIPQAGLGVWNEASDLPLGLHFGPYEGRITEDEEAANNGYSWLITKGRNCYEYVDGKDKSWANWMRYVNCARDDEEQNLVAFQYHRQIFYRTCRVIRPGCELLVWYGDEYGQELGIKWGSKWKKELMAGREPKP
As to B1, the Km amounted to 3 ± 1 µM in data set [1]; 2.5 ± 0.3 µM in data set [2]; 1.5 ± 0.2 µM in data set [3]; 2.4 ± 0.4 µM in data set [4]; 1 ± 0.2 µM in data set [5].
